From patent US20160200813A1 (AbbVie / Abbott, published 2016) come the findings set out here.

Residue numbers refer to the chain shown, from its start. “And” between values parts separate entries of the source, which are not always exact repeats. Equal values may be shown once. *1 amine or outer side, *2 acyl side, *3 side chain or, on linkers, in order; H or OH if unused. Bridges are numbered along the chain shown (N, C = ends). Where no end group is shown, it is not given here. Lys(Aoa) = NOCC(=O)NCCCC[C@H](N[*:1])C(=O)[*:2]

B1: anti-LRP-8 BGK.5D10.E4 [r/m IgG2a/K] (antibody, V domains shown)
VH: QVQLRETGPDLVQPTQTLSLTCTVSGFSLTNYPVQWVRQPPGSGLEWLGIMWPSGAADFNPALKSRLSISRDTSKSQFFLRMDNLQTDDTAIYFCARGRGYSSPYAMDAWGQGTSVTVSS
VL: DIQMTQSPASLSASLGETVSIECLASEDIYNNLAWYQQKPGKSPHLLIHFTSNLQDGVPSRFSGSGSGTQYSLKINSLESEDGATYFCLQDSEYPLTFGSGTKLEIK
notes: Rat variable domains on mouse IgG2a/kappa
B2: anti-LRP-8 BGK.2C8.E6.D3 [r/m IgG2a/K] (antibody, V domains shown)
VH: QVTLKESGPGILQPSQTLSLTCTFSGFSLNTYGMGVGWVRQPSGKGLEWLANIWWDDDKFYNPSLKNRLTVSKDTSNNQAFLRITNGDTADTATYFCARILGEDIGGALDAWGQGTSVTVSS
VL: DTVLTQSPALAVSPGERVSISCRASEGVNSYMHWYQQNPGQQSKLLIYRTSNLASGVPARFGGSGSGTDFTLTIDPVEADDTATYFCQQSWNDPPTFGGGTKLELK
B3: anti-LRP-8 BGK.6E3.F4 [r/m IgG2a/K] (antibody, V domains shown)
VH: EVQLVESGGGLVQPGKSLKLSCAASGFTFSDYNMAWVRQAPKKGLEWVATIMYDGSRTFYRDSVKGRYTFSRDNAKSTLYLQMDSLRSEDTATYYCATGRNWFAYWGQGTLVTVSS
VL: DIIMTQSPSSLAVSAGETVTINCKSSQSLLSSGKQKNYLAWYQQKPGQSPKLLIYLASTRESGVPDRFIGSGSGTDFTLTISSMQAEDLAIYYCQQHYDTPLTFGSGTKLEIK
notes: as for B1
B4: anti-LRP-8 BGK-2C8.8C antibody (antibody, V domains shown)
VH: EVQLVESGGGLVQPGRSLKLSCAASGFTVSDYYMAWVRQAPKKGLEWVASISYEGSSTYYGDSVKGRFTISRDNAKSILYLQMNSLRSEDTATYYCARPLRYYGYNYRFAYWGQGTLVTVSS
VL: DIQMSQSPPVLSASVGDRVTLSCKASQNIHKNLDWYQQKHGEAPKLLIYYTDNLQTGIPSRFSGSGSGTDYTLTISSLQPEDVATYYCYQYNSGPTFGAGTKLELQ
B5: anti-LRP-8 BGK-9D10-2 antibody (CL-105967) (antibody, V domains shown)
VH: EVQLVESGGGLVQSGRSLKLSCAASGFTFSNYYMAWVRQAPKKGLEWVATITTSGSRSFYPDSVKGRFTISRDNAKSSLYLQINSLKSEDTATYYCARRGPLGYFDHWGRGVMVTVSS
VL: DIQMTQSPPSLPASLGDKVTITCQASQNINKYIAWYQQKPGKAPRLLIRFTSTLESDTPSRFSGSGSGRDYSFSISNVESEDFASYYCLHYDNLPPWTFGGGTKLELK
notes: also called BGT-9D10-2
B6: anti-LRP-8 ML201-8F3.3D7 murine antibody (muFc) (antibody, V domains shown)
VH: EVQLVESGGDLVKPGGSLKLSCAASRFTFSNFGMSWVRQTPDKRLEWVATISSGGRYTYYPDSVKGRFTISRDNAKNTLYLQMSSLRSEDTAMYYCARDYLYAMDYWGQGTSVTVSS
VL: DVVMTQTPLSLPVSLGDQASISCRSSQSLVYSNGNTYLHWYLQKPGQSPKVLMYKVSNRFSGVSDRFSGSGSGTDFTLKISRVEAEDLGVYFCSQSTHVPLTFGAGTKLELK
notes: Mouse Fc form; also called ML201-8F3-3D7 muFc; CL-33866
B7: anti-LRP-8 antibody ab58216 (mFc) (antibody, V domains shown)
VH: EVHLQQSGPEVVKPGASVKISCKASGYIISGYFLNWVKQSHGKSLEWVGRINPYSGDTFFNQKFKGKATLTVDKSSNTAHMELRSLTSEDSAVFYCAREDIGRFAYWGQGTLVTVSA
VL: DVLMTQTPLSLPVSLGDQASISCRSSQTIVHSNGNTYLEWYLQKPGQSPKLLIYKVSNRFSGVPDRFSGSGSGTDFTLKISRVEAEDLGVYYCFQGSHAPPTFGGGTKLEIK
notes: Mouse Fc form
B8: anti-LRP-8 ML201-2B4.2B1.2H10 murine antibody (muFc) (antibody, V domains shown)
VH: DVKLVASGGGLVKPGGSLKLSCAASGFTLSRYAMSWVRQTPEKRLEWVAYIRNGGDYIYYADTVKGRFTISRDNARNTLYLQMSSLKSEDTAMYYCTREGSYYNFDYWGQGTTLTVSS
VL: B7 VL with T28S, K50N, Y54F, S68I, A99V, P101W
notes: Mouse Fc form; also called ML201-2B4.2B1.2H10 muFc; CL-33867
B9: anti-LRP-8 antibody CL-135325 (antibody, V domains shown)
VH: EVQLVQSGGGLVQPGGSLRLSCAASGFTFSIYAMSWVRQAPGKGLEWVSVISCSAGSTYYADSVKGRFTISRDNSKNTLYLQMNSLRAEDTAVYYCARHSVHEEFPFDVWGQGTLVTVSS
VL: DIQMTQSPSSLSASVGDRVTITCRASQSIGSYLNWYQQKPGKAPKLLIYAASSLQSGVPSRFSGSGSGTDFTLTISSLQPEDFATYYCQQSYIPPLTFGGGTKVEIK
B10: anti-LRP-8 antibody CL-135359 (antibody, V domains shown)
VH: EVQLVQSGGGLVQPGGSLRLSCAASGFTFSSYAMSWVRQAPGKGLEWVSVISCSGGTTYYADSVKGRFTISRDNSKNTLYLQMNSLRAEDTAVYYCARNGGQFDLWGQGTLVTVSS
VL: B9 VL with S28G, G30C, S31T, I93N
B11: chimeric anti-LRP-8 ML201-8F3.3D7 antibody (antibody, V domains shown)
VH: B6 VH
VL: B6 VL
notes: also called ML201.8F3.3D7 hFc; CL-33866
B12: anti-LRP-8 BGK-7A11 chimeric antibody (CL-105959) (antibody, V domains shown)
VH: QVTLKESGPGILQPSQTLSLTCTFSGFSLSTYGMGVGWIRQPAGTGLEWLANIWWDDDKYYNPSLKNRLTISKDTSNNQVFLKITNVDTADTATYYCARTTKPYYFDYWGQGVMVTVSS
VL: HFVLAQPNSVSTNLGSTVKLSCKRSTGNSGSNYVNWYQQYEGRSPTTMIYRDDKRPDGVPDRFSGSIDRSSNSALLTINNVQTEDEADYFCQSYSSGINIFGGGTKLTVL
B13: anti-LRP-8 BGK-7F7 chimeric antibody (CL-105960) (antibody, V domains shown)
VH: B12 VH with M34L, A43S, T45K, D58A, V80A, T85P, T94R
VL: B12 VL with G27A, S29I, Y40H, M48L, K54R
B14: anti-LRP-8 BGK-6B5-2 chimeric antibody (CL-105969) (antibody, V domains shown)
VH: B12 VH with T3S, K5Q, Y32F, A43S, T45K, V80A, T101A, Q111H
VL: B12 VL with S16N, S29I, Y40H, M48L, I67F, S95N, I100F
B15: anti-LRP-8 BGK-2H4 chimeric antibody (CL-105945) (antibody, V domains shown)
VH: EVQLVESGGGLVQPGRSMKLSCAASGFTFSSFPMAWVRQAPTKGLEWVATVSTRGGHTYYRDSVKGRFTISRDNAKNTLYLQMNSLRSEDTATYYCIREGTSLFAYWGQGTLVTVSS
VL: DIQMTQSPPSLSASLGETVSIECLASEDISNYLAWYQQKPGKSPQLLIYYANSLEDGVPSRFSGSGSGTQYSLKISNMQPEDEGVYHCQQGYNYPYTFGAGTKLELK

One assay addresses T1, Cynomolgus monkey LRP-8 expressed on HEK293 cells (cynomolgus monkey).
T1 construct: whole, on cells; also called cyno LRP-8; cLRP-8
The assay is described as follows: cell-based binding on CYNO LRP8-HEK293, supernatant 1:25.
As for B1, the “fold over isotype control” value was determined as 30.2 fold.

Take B2: the “fold over isotype control” value was 13.8 fold.

As for B3, the “fold over isotype control” value was 1.02 fold.

The next assay concerns the target T1, Cynomolgus monkey LRP-8 expressed on …. As to the kind of experiment: cell-based MSD-ECL binding on cells overexpressing cyno LRP-8 variant 1 (cynoLRP8 assay). The method, then: (§1) A cell-based ECL-MSD binding assay was used to determine antibody affinity. HEK293 cells overexpressing human, monkey or mouse LRP-8 were added onto MSD 96-well plate (MSD Cat# L15XB-3/L11XB-3) and incubated at 37° C. for one hour. Cells were blocked using 15% FBS (Hyclone, Thermo Scientific Cat# SH300700.03) at RT for 30 minutes with mild agitation. Plates were washed with DPBS three times and Abs or DVD-Ig binding proteins were added to the well. After incubation at RT for one hour, plates were washed with DPBS and goat anti-human or anti-mouse Sulfo TAG (MSD Cat#R32AJ-1) was added. Plates were incubated at RT for one hour, washed with DPBS and immersed in MSD read buffer (MSD Cat#R92TD-2) before reading on a MSD SECTOR Imager 6000. EC50 values were obtained using Xlfit4 software system.
With B4, the EC50 was 0.0881 µg/mL and 0.44 nM.

As for B5, the EC50 was 0.12 µg/mL and 0.6 nM.

The next assay shares this target. As to the kind of experiment: cell-based ECL-MSD, 10 ug/ml Ab, cyno-LRP-8-HEK293. The method, then:
as §1
As to B6, the “fold over mIgG control” value was found to be 5.2 fold.

B7: the “fold over mIgG control” value was 1.2 fold.

On to B8, for which the “fold over mIgG control” value came to 2.8 fold.

A further assay has as its target T2, CR1 cyclic peptide of human LRP-8 (human, disulfide 1-13).
T2 construct: also called CR1 peptide; conjugated human LRP-8 CR1 peptide
T2 peptide: CEKDQFQSRNERCIPSVWR-{Lys(Aoa)-NH2}
As to the kind of experiment: ELISA using CR1 peptide.
B9 gave an OD450 of 0.17 OD450.

As for B10, the OD450 worked out at 0.1 OD450.

In another assay the target is T3, Human LRP-8 (isoform 3) expressed on cells (human, UniProt Q14114 33-963).
T3 construct: also called hLRP-8; huLRP-8
T3 sequence (Q14114 other isoform, or with tags, fused parts or gaps limits assumed): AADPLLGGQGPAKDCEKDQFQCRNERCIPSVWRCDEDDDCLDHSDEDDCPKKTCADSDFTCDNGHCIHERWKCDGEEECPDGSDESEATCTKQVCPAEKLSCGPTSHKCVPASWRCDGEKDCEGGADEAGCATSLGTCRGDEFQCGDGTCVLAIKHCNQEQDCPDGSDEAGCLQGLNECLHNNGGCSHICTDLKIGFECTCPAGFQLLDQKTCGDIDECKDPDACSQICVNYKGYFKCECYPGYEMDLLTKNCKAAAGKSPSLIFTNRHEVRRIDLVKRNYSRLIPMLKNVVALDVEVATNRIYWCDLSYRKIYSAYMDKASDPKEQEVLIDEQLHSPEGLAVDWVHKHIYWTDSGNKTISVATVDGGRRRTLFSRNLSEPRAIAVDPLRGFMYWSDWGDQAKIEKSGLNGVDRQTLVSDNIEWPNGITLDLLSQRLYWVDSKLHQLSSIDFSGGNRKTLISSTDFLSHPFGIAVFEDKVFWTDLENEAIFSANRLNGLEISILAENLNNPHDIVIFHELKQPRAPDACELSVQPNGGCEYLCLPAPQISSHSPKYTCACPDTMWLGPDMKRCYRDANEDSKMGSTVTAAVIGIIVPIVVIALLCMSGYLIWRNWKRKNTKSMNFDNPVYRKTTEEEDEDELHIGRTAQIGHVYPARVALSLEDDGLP
The assay is described as follows: cell-based ECL-MSD, 10 ug/ml Ab, human_LRP-8_HEK293. The method, then:
as §1
Consider B6, for which the “fold over mIgG control” value came to 13.6 fold.

Take B7: the “fold over mIgG control” value was 17.3 fold.

Turning to B8, the “fold over mIgG control” value turned out to be 14.2 fold.

For another assay, the target named is T3, Human LRP-8 (isoform 3) expressed on …. As to the kind of experiment: cell-based MSD-ECL binding on cells overexpressing human LRP-8 variant 3 (hLRP8 assay). How it is done:
as §1
As for B4, the EC50 is 0.55 µg/mL and 2.75 nM.

As to B5, the EC50 is 0.108 µg/mL and 0.54 nM.

Another assay has the same target. As to the kind of experiment: cell-based binding assay, hLRP8.
On to B11, for which the EC50 is 0.16 nM.

For B1, the EC50 came to 0.24 nM.

B2: the EC50 came to 0.1 nM.

For B3, the EC50 worked out at 0.11 nM.

Consider B4, for which the EC50 amounted to 2.62 nM.

For B12, the EC50 came to 0.12 nM.

With B13, the EC50 came to 0.11 nM.

For B14, the response was half-maximal at 0.15 nM (EC50).

With B5, the EC50 is 2.29 nM.

B15: a half-maximal response (EC50) required 0.21 nM.

For a further assay, the target named is T1, Cynomolgus monkey LRP-8 expressed on …. As to the kind of experiment: FACS, cyno LRP8 cells.
Take B9: the “FACS (ratio +/-)” value is 16.5 ratio.

In the case of B10, the “FACS (ratio +/-)” value came out at 12.6 ratio.

For another assay the target is unchanged. As to the kind of experiment: cell-based binding assay, cynoLRP8.
Molecule B1 had an EC50 of 0.77 nM.

B2 showed an EC50 of 0.31 nM.

The molecule B3 had an EC50 of 0.25 nM.

As to B4, a half-maximal effect (EC50) was put at 0.82 nM.

In the case of B12, the EC50 is 0.53 nM.

In turn, B13 came in with an EC50 of 0.35 nM.

On to B14, for which the EC50 stood at 0.51 nM.

B5 gave an EC50 of 0.64 nM.

Molecule B15 came in with an EC50 of 1.08 nM.

A further assay shares this target. The assay is described as follows: cell-based binding on CYNO LRP8-HEK293, supernatant 1:5.
As for B1, the “fold over isotype control” value is 5.85 fold.

On to B2, for which the “fold over isotype control” value turned out to be 5.16 fold.

On to B3, for which the “fold over isotype control” value was 0.41 fold.

The target of another assay is T3, Human LRP-8 (isoform 3) expressed on …. The assay is described as follows: cell-based or functional assay.
As for B6, the “Endocytosis, fold over IgG control” value turned out to be 1.6 fold and the “Transcytosis, fold over IgG control” value is 1.08 fold.

Turning to B7, the “Endocytosis, fold over IgG control” value stood at 2.6 fold and the “Transcytosis, fold over IgG control” value turned out to be 1.53 fold.

As to B8, the “Endocytosis, fold over IgG control” value is 1.8 fold and the “Transcytosis, fold over IgG control” value stood at 1.44 fold.

The next assay has as its target T1, Cynomolgus monkey LRP-8 expressed on …. As to the kind of experiment: cell-based binding on CYNO LRP8-HEK293, supernatant 1:125.
For the molecule B1, the “fold over isotype control” value came to 28.2 fold.

For the molecule B2, the “fold over isotype control” value was found to be 13.7 fold.

On to B3, for which the “fold over isotype control” value was found to be 0.87 fold.

The term EC50 denotes the concentration that produces a half-maximal response.
